Results as given in patent publication US20020123056.

How the values were obtained:
[1] = biological target: PDK1 peptide (PDKtide) …
[2] = biological target: T1, PKB-sub peptide (GSK3 consensus peptide) CKRPRAASFAE
T1 chain: CKRPRAASFAE

B1: GST-SGK2 fusion protein (human SGK2 with N-terminal Glutathione S-transferase tag, expressed in Hi5 insect cells) (protein)
chain: MNSSPAGTPSPQPSRANGNINLGPSANPNAQPTDFDFLKVIGKGNYGKVLLAKRKSDGAFYAVKVLQKKSILKKKEQSHIMAERSVLLKNVRHPFLVGLRYSFQTPEKLYFVLDYVNGGELFFHLQRERRFLEPRARFYAAEVASAIGYLHSLNIIYRDLKPENILLDCQGHVVLTDFGLCKEGVEPEDTTSTFCGTPEYLAPEVLRKEPYDRAVDWWCLGAVLYEMLHGLPPFYSQDVSQMYENILHQPLQIPGGRTVAACDLLQSLLHKDQRQRLGSKADFLEIKNHVFFSPINWDDLYHKRLTPPFNPNVTGPADLKHFDPEFTQEAVSKSIGCTPDTVASSSGASSAFLGFSYAPEDDDILDC
in vitro kinase assay, 32P incorporation into peptide (purified SGK2) [1]: addition of same amount of control peptide (PDK1 peptide) had no significant incorporation | in vitro kinase assay, 32P incorporation into peptide (purified SGK2) [2]: PKB-sub had significant incorporation of ^32P | in vitro kinase assay, PDK1-activated versus non-activated SGK2 [2]: the PDK1 activated SGK2 had significantly higher kinase activity compared to non-activated SGK2
